Laboratory results taken from US20220177587A1, “METHODS AND USES OF VARIANT CD80 FUSION PROTEINS AND RELATED CONSTRUCTS” (Alpine Immune Sciences, Inc., priority 2018, published 2022).

Experiments:
[1] = target: T1, CD28 (Homo sapiens, UniProt P10747); test: Flow binding to Jurkat/IL2 reporter cells (CD28); set-up: host or cells: Jurkat cells expressing an IL-2-luciferase reporter; conditions: 33.3 nM; for CD28 MFI at 33.3 nM: Jurkats (CD28)
Summary of the method: (§1)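 Binding EC50 and PE mean fluorescence intensity derived by flow cytometry using PE-labelled anti-human Fc secondary. Target cells were CTLA4- or PD-L1-transfected CHO lines and CD28-expressing Jurkat/IL2 reporter cells, stained with fusion proteins on ice for 45 min following BSA blocking.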

[2] = target: T1, CD28; test: Jurkat/IL2 + CHO/OKT3 +/- PD-L1 reporter assay: PD-L1-dependent CD28 costimulation; type: cell-based; set-up: host or cells: Jurkat cells expressing an IL-2-luciferase reporter; conditions: Jurkat/IL2 + CHO/OKT3/PD-L1, 5.0 nM
Summary of the method: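 Readout is relative luminescence from lysed cocultures: test protein given 15 min at room temperature to Jurkat cells before adding CHO artificial APCs displaying OKT3 alone or OKT3 plus PD-L1, then 5 h at 37 °C, 5% CO2.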

[3] = target: huCTLA4 (Homo sapiens, UniProt P16410); test: Flow binding to CHO cells stably expressing CTLA4; set-up: huCTLA4 and huPD-L1, full-length mammalian surface expression constructs were generated; expressed in transfected cells; host or cells: CHO cells, lentiviral transduction, sorted to >98% purity; conditions: 33.3 nM; for CTLA4 MFI at 33.3 nM: CHO cells stably expressing CTLA4
Summary of the method: as §1

[4] = target: huPD-L1 (Homo sapiens, UniProt Q9NZQ7); test: Flow binding to CHO cells stably expressing PD-L1; set-up: huCTLA4 and huPD-L1, full-length mammalian surface expression constructs were generated; expressed in transfected cells; host or cells: CHO cells, lentiviral transduction, sorted to >98% purity; conditions: for PD-L1 MFI at 33.3 nM: CHO cells stably expressing PD-L1; for PD-L1 MFI at 33.3 nM / PD-L1 Fold change to WT CD80: 33.3 nM
Summary of the method: as §1

[5] = Table E10, relative to CD80 WT IgV-Fc
[6] = Table E10, binding to PD-L1 compared to binding to CD28
[7] = Table E11, listed as WT CD80 ECD-Fc = 1.0

Chain of huCTLA4 (P16410 36-223): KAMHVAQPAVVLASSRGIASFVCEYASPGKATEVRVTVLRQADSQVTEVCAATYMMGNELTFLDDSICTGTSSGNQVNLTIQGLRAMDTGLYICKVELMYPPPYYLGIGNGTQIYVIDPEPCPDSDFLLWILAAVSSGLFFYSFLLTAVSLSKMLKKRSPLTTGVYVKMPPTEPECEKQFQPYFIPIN
Chain of huPD-L1 (Q9NZQ7 19-290): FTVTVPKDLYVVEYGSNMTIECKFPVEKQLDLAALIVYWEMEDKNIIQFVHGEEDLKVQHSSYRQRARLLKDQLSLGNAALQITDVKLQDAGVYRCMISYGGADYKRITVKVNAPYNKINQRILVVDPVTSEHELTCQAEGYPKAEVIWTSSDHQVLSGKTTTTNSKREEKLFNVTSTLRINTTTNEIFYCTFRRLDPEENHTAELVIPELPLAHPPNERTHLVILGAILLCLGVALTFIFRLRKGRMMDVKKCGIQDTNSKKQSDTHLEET

CD28 MFI at 33.3 nM ([1]; Table E10)	CD28 Fold change to WT CD80 [1, 5]	Fold Increase over WT CD80-IgV-Fe ([2]; Table E12)	Relative Luciferase Units (RLU), CD80 Cone 5.0 nM ([2]; Table E12)	CTLA4 MFI at 33.3 nM ([3]; Table E10)	CTLA4 Fold change to WT CD80 [3, 5]	PD-L1 MFI at 33.3 nM ([4]; Table E10)	PD-L1 Fold change to WT CD80 [4, 5]	Ratio of PDL1:CD28 [4, 6]	CD28 Fold change to WT CD80 [1, 7]	CD28 MFI at 33.3 nM ([1]; Table E11)	Fold Increase over WT CD80-IgV-Fe ([2]; Table E13)	Relative Luciferase Units (RLU), CD80 Cone 5.0 nM ([2]; Table E13)	CTLA4 Fold change to WT CD80 [3, 7]	CTLA4 MFI at 33.3 nM ([3]; Table E11)	PD-L1 Fold change to WT CD80 [4, 7]	PD-L1 MFI at 33.3 nM ([4]; Table E11)	Ratio of PDL1:CD28 ([4]; Table E11, MFI at 33.3 nM)	Molecule
1001	15.2	4.8	1915 RLU	21394	11.2	3789	53.9	4	–	–	–	–	–	–	–	–	–	E35D/D46E/M47I (protein) VIHVTKEVKEVATLSCGHNVSVEELAQTRIYWQKDKKMVLTMMSGEINIWPEYKNRTIFDITNNLSIVILALRPSDEGTYECVVLKYEKDAFKREHLAEVTLSVKAD
72.4	1.1	2.8	1136 RLU	30262	15.8	2191	31.2	30	–	–	–	–	–	–	–	–	–	E35D/T41S/N48T (protein) VIHVTKEVKEVATLSCGHNVSVEELAQTRIYWQKDKKMVLSMMSGDMTIWPEYKNRTIFDITNNLSIVILALRPSDEGTYECVVLKYEKDAFKREHLAEVTLSVKAD
–	–	–	–	–	–	–	–	–	48.3	1517	2.7	1072 RLU	9.3	16243	328.4	16912	11.1	E35D/M43I/M47L/V68M (protein, UniProt P33681 35-288, looked up, variant E35D M43I M47L V68M) T-lymphocyte activation …: VIHVTKEVKEVATLSCGHNVSVEELAQTRIYWQKDKKMVLTMISGDLNIWPEYKNRTIFDITNNLSIMILALRPSDEGTYECVVLKYEKDAFKREHLAEVTLSVKADFPTPSISDFEIPTSNIRRIICSTSGGFPEPHLSWLENGEELNAINTTVSQDPETELYAVSSKLDFNMTTNHSFMCLIKYGHLRVNQTFNWNTTKQEHFPDNLLPSWAITLISVNGIFVICCLTYCFAPRCRERRRNERLRRESVRPV
–	–	–	–	–	–	–	–	–	12.2	383	3.9	1546 RLU	9.1	16013	485.9	25024	65.3	E35D/M47L/Y53F/V68M/A71G/K93R/E95V (protein, UniProt P33681 35-288, looked up, variant E35D M47L Y53F V68M A71G K93R E95V) T-lymphocyte activation …: VIHVTKEVKEVATLSCGHNVSVEELAQTRIYWQKDKKMVLTMMSGDLNIWPEFKNRTIFDITNNLSIMILGLRPSDEGTYECVVLKYEKDAFRRVHLAEVTLSVKADFPTPSISDFEIPTSNIRRIICSTSGGFPEPHLSWLENGEELNAINTTVSQDPETELYAVSSKLDFNMTTNHSFMCLIKYGHLRVNQTFNWNTTKQEHFPDNLLPSWAITLISVNGIFVICCLTYCFAPRCRERRRNERLRRESVRPV

Continued, molecule first:

Molecule	CD28 MFI at 33.3 nM ([1]; Table E10)	CD28 Fold change to WT CD80 [1, 5]	Fold Increase over WT CD80-IgV-Fe ([2]; Table E12)	Relative Luciferase Units (RLU), CD80 Cone 5.0 nM ([2]; Table E12)	CTLA4 MFI at 33.3 nM ([3]; Table E10)	CTLA4 Fold change to WT CD80 [3, 5]	PD-L1 MFI at 33.3 nM ([4]; Table E10)	PD-L1 Fold change to WT CD80 [4, 5]	Ratio of PDL1:CD28 [4, 6]	CD28 Fold change to WT CD80 [1, 7]	CD28 MFI at 33.3 nM ([1]; Table E11)	Fold Increase over WT CD80-IgV-Fe ([2]; Table E13)	Relative Luciferase Units (RLU), CD80 Cone 5.0 nM ([2]; Table E13)	CTLA4 Fold change to WT CD80 [3, 7]	CTLA4 MFI at 33.3 nM ([3]; Table E11)	PD-L1 Fold change to WT CD80 [4, 7]	PD-L1 MFI at 33.3 nM ([4]; Table E11)	Ratio of PDL1:CD28 ([4]; Table E11, MFI at 33.3 nM)
V22A/E35D/M47L/A71G (protein) VIHVTKEVKEVATLSCGHNVSAEELAQTRIYWQKDKKMVLTMMSGDLNIWPEYKNRTIFDITNNLSIVILGLRPSDEGTYECVVLKYEKDAFKREHLAEVTLSVKAD	990	15.0	6.5	2583 RLU	21855	11.4	8168	116.2	8	–	–	–	–	–	–	–	–	–
E35D/D46E (protein) VIHVTKEVKEVATLSCGHNVSVEELAQTRIYWQKDKKMVLTMMSGEMNIWPEYKNRTIFDITNNLSIVILALRPSDEGTYECVVLKYEKDAFKREHLAEVTLSVKAD	779	11.8	4.9	1961 RLU	27921	14.6	3757	53.4	5	–	–	–	–	–	–	–	–	–
Q27H/E35D/M47I (protein) VIHVTKEVKEVATLSCGHNVSVEELAHTRIYWQKDKKMVLTMMSGDINIWPEYKNRTIFDITNNLSIVILALRPSDEGTYECVVLKYEKDAFKREHLAEVTLSVKAD	756	11.5	4.6	1829 RLU	27530	14.4	3424	48.7	5	–	–	–	–	–	–	–	–	–
Q27L/E35D/M47V/I61V/L85M (protein) VIHVTKEVKEVATLSCGHNVSVEELALTRIYWQKDKKMVLTMMSGDVNIWPEYKNRTIFDVTNNLSIVILALRPSDEGTYECVVMKYEKDAFKREHLAEVTLSVKAD	230	3.5	2.9	1166 RLU	27881	14.6	2705	38.5	12	–	–	–	–	–	–	–	–	–
E35D/D46E/A91G (protein) VIHVTKEVKEVATLSCGHNVSVEELAQTRIYWQKDKKMVLTMMSGEMNIWPEYKNRTIFDITNNLSIVILALRPSDEGTYECVVLKYEKDGFKREHLAEVTLSVKAD	3450	52.3	1.0	395 RLU	32189	16.8	2818	40.1	1	–	–	–	–	–	–	–	–	–
H18Y/E35D (protein) VIHVTKEVKEVATLSCGYNVSVEELAQTRIYWQKDKKMVLTMMSGDMNIWPEYKNRTIFDITNNLSIVILALRPSDEGTYECVVLKYEKDAFKREHLAEVTLSVKAD	479	7.3	5.0	1990 RLU	26258	13.7	3526	50.2	7	–	–	–	–	–	–	–	–	–
E35D/D46E/L85M (protein) VIHVTKEVKEVATLSCGHNVSVEELAQTRIYWQKDKKMVLTMMSGEMNIWPEYKNRTIFDITNNLSIVILALRPSDEGTYECVVMKYEKDAFKREHLAEVTLSVKAD	164	2.5	3.5	1413 RLU	30289	15.8	2880	41.0	18	–	–	–	–	–	–	–	–	–
H18Y/E35D/M38I/M47L/V68M/L85M (protein, UniProt P33681 35-288, looked up, variant H18Y E35D M38I M47L V68M L85M) T-lymphocyte activation …: VIHVTKEVKEVATLSCGYNVSVEELAQTRIYWQKDKKIVLTMMSGDLNIWPEYKNRTIFDITNNLSIMILALRPSDEGTYECVVMKYEKDAFKREHLAEVTLSVKADFPTPSISDFEIPTSNIRRIICSTSGGFPEPHLSWLENGEELNAINTTVSQDPETELYAVSSKLDFNMTTNHSFMCLIKYGHLRVNQTFNWNTTKQEHFPDNLLPSWAITLISVNGIFVICCLTYCFAPRCRERRRNERLRRESVRPV	–	–	–	–	–	–	–	–	–	0.5	16.7	0.5	198 RLU	0.1	139	69.7	3589	214.9
